Results reported in patent US7608407 (Boehringer Ingelheim, dated 2009).

Biological target: T1, GST-HDC (human histidine decarboxylase, amino acid residues 1-477, fused to GST) (human, UniProt P19113 1-477)
T1 sequence: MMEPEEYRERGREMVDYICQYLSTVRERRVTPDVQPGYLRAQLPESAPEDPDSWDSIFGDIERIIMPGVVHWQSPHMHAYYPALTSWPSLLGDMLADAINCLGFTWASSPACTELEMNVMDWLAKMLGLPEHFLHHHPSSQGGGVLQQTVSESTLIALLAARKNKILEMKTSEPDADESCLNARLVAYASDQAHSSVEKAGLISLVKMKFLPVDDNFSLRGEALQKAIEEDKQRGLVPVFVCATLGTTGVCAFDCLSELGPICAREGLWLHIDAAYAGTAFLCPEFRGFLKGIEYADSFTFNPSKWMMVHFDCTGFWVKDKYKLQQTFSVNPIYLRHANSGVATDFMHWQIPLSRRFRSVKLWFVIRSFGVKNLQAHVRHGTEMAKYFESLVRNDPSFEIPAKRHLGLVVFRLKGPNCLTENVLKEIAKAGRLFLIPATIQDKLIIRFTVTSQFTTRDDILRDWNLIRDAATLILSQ
Test: cell-based or functional assay

HF [dipeptide histidine-phenylalanine]
IC50 (inhibition of HDC enzyme activity, standard fluorescence polarization HDC assay): 228 µM
